From publication PMC12459405, “From disorder to icosahedral symmetry: How conformation-switching subunits enable RNA virus assembly” (Science Advances, 2025)

Molecular target: the molecule itself
Assay: cryo-TEM + other: SAXS; in vitro assembly: purified CCMV capsid proteins mixed with in vitro transcribed RNA (C2, 2767 nt, or RF2, 2687 nt) and dialysed overnight against 0.1 M NaCl, 50 mM tris-HCl pH 7.5; SAXS at 25 uM protein, protein-to-RNA mass ratio 4.5; cryo-TEM at 75 uM protein, mass ratio 6.0

B1: cowpea chlorotic mottle virus (CCMV) capsid protein (natural protein)
chain: MSTVGTGKLTRAQRRAAARKNKRNTRVVQPVIVEPIASGQGKAIKAWTGYSVSKWTASCAAAEAKVTSAITISLPNELSSERNKQLKVGRVLLWLGLLPSVSGTVKSCVTETQTTAAASFQVALAVADNSKDVVAAMYPEAFKGITLEQLTADLTIYLYSSAALTEGDVIVHLEVEHVRPTFDDSFTPVY
notes: Free capsid protein stored in 0.5 M NaCl, 50 mM tris-HCl pH 7.5; also called CCMV capsid proteins; CCMV coat proteins; source: purified from CCMV virions from infected cowpea leaves (Vigna unguiculata); virions disassembled by dialysis, capsid proteins recovered by ultracentrifugation
B1: binds.
